Experiments:
Goat anti-Human Kappa = molecular target: T1, Goat anti-Human Kappa; test: ELISA; positive control
T1 construct: Positive control; also called biotinylated goat anti-human kappa light chain
In short: (§1)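 ELISA measured binding of ACVR2A-specific monoclonal antibodies to human and mouse ACVR2A. Biotinylated goat anti-human kappa light chain served as positive control and human Fc as negative control.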

Human ACVR2A = molecular target: T2, Human ACVR2A (human, UniProt P27037 20-135, limits assumed); test: ELISA
T2 construct: also called activin receptor, type II A
T2 sequence (P27037 20-135 limits assumed): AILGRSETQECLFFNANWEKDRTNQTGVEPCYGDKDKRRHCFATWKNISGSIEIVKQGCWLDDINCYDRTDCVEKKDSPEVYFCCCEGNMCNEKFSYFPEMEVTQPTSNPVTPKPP
In short: as §1

Mouse ACVR2A = Mouse ACVR2A (mouse, UniProt P27038 20-135, limits assumed); test: ELISA
Mouse ACVR2A, sequence (P27038 20-135 limits assumed): as the sequence (P27037 20-135 limits assumed) above, with K20R, V73I counted along it
In short: as §1
Note: test concentration or dose not given here.

Row | Binder | optical density (Goat anti-Human Kappa) [OD] | optical density (Human ACVR2A) [OD] | optical density (Mouse ACVR2A) [OD]
1 | 365_C12 (antibody, V domains shown, VH/VL only) VH: EVQLLESGGGLVQPGGSLRLSCAASGFTFSSYGMNWVRQAPGKGLEWVAGINYNSGYKSYADSVKGRFTISRDNSKNTLYLQMNSLRAEDTAVYYCARSANWHDTALDYWGQGTLVTVSS VL: DIQMTQSPSSLSASVGDRVTITCRASQSIVSYVNWYQQKPGKAPKLVIYAVTSLASGVPSRFSGSGSGTDFTLTISSLQPEDFATYYCQQSYDTPLTFGGGTKVEIK | 3.58 | 1.92 | 2.04
2 | 366_E10 (antibody, V domains shown, VH/VL only) VH: EVQLLESGGGLVQPGGSLRLSCAASGFTFDSYGMNWVRQAPGKGLEWVSGINYNGGYKGYADSVKGRFTISRDNSKNTLYLQMNSLRAEDTAVYYCARSANWHDTHLDYWGQGTLVTVSS VL: DIQMTQSPSSLSASVGDRVTITCRASQSILSYVNWYQQKPGKAPKLVIYAATSRHSGVPSRFSGSGSGTDFTLTISSLQPEDFATYYCQQSYSLPLTFGGGTKVEIK | 3.45 | 2.35 | 2.39
3 | 366_H07 (antibody, V domains shown, VH/VL only) VH: EVQLLESGGGLVQPGGSLRLSCAASGFTFSSYGMHWVRQAPGKGLEWVSGINYNGGYTSYADSVKGRFTISRDNSKNTLYLQMNSLRAEDTAVYYCARSANWHDTALDYWGQGTLVTVSS VL: DIQMTQSPSSLSASVGDRVTITCRASQSIISYVNWYQQKPGKAPKLVIYAVTSRASGVPSRFSGSGSGTDFTLTISSLQPEDFATYYCQQSYENPLTFGGGTKVEIK | 3.6 | 2.53 | 2.67
4 | 366_A07 (antibody, V domains shown, VH/VL only) VH: EVQLLESGGGLVQPGGSLRLSCAASGFTFSSYGMHWVRQAPGKGLEWVASINYNGGYTGYADSVKGRFTISRDNSKNTLYLQMNSLRAEDTAVYYCARSANWHDTALDYWGQGTLVTVSS VL: DIQMTQSPSSLSASVGDRVTITCRASQSIVSYVNWYQQKPGKAPKLVIYAATSRHSGVPSRFSGSGSGTDFTLTISSLQPEDFATYYCQQSYESPLTFGGGTKVEIK | 3.37 | 2.42 | 2.68
5 | 365_F01 (antibody, V domains shown, VH/VL only) VH: EVQLLESGGGLVQPGGSLRLSCAASGFTFDSYSMNWVRQAPGKGLEWVSGINYNSGYKGYADSVKGRFTISRDNSKNTLYLQMNSLRAEDTAVYYCARSANWHDTHLDYWGQGTLVTVSS VL: DIQMTQSPSSLSASVGDRVTITCRASQSIVSYLNWYQQKPGKAPKLVIYAATSLASGVPSRFSGSGSGTDFTLTISSLQPEDFATYYCQQSYELPLTFGGGTKVEIK | 3.51 | 2.51 | 2.47

Second part, the binder after the results:

Row | optical density (Goat anti-Human Kappa) [OD] | optical density (Human ACVR2A) [OD] | optical density (Mouse ACVR2A) [OD] | Binder
6 | 3.26 | 2.21 | 2.5 | 366_G05 (antibody, V domains shown, VH/VL only) VH: EVQLLESGGGLVQPGGSLRLSCAASGFTFDSYGMNWVRQAPGKGLEWVSNINYNGGYTSYADSVKGRFTISRDNSKNTLYLQMNSLRAEDTAVYYCARSANWHDTALDYWGQGTLVTVSS VL: DIQMTQSPSSLSASVGDRVTITCRASQSIISYVNWYQQKPGKAPKLVIYAATSRASGVPSRFSGSGSGTDFTLTISSLQPEDFATYYCQQSYENPLTFGGGTKVEIK
7 | 3.27 | 2.32 | 2.65 | 365_H03 (antibody, V domains shown, VH/VL only) VH: EVQLLESGGGLVQPGGSLRLSCAASGFTFDDYGMNWVRQAPGKGLEWVAGINYNGGYKSYADSVKGRFTISRDNSKNTLYLQMNSLRAEDTAVYYCARSANWHDTALDYWGQGTLVTVSS VL: DIQMTQSPSSLSASVGDRVTITCRASQSILSYVNWYQQKPGKAPKLVIYAATSLHSGVPSRFSGSGSGTDFTLTISSLQPEDFATYYCQQSYNNPLTFGGGTKVEIK
